According to US20120045438A1 (Janssen / Centocor, published 2012):
Numbering of substitutions follows the chain as printed.

B1: Phage # 62 Fab (IL-13-142 library) (Fab, V domains shown)
VH: QVTLKESGPVLVKPTETLTLTCTVSGFSLSTYGMGVGWIRQPPGKALEWLAHIWWDDVKRYNPALKSRLTISKDTSKSQVVLTMTNMDPVDTATYYCARMGSDYDVWFDYWGQGTLVTVSS
VL: DIQMTQSPSTLSASVGDRVTITCRASKSISKYLAWYQQKPGKAPKLLIYSGSTLQSGVPSRFSGSGSGTEFTLTISSLQPDDFATYYCQQQDSPYTFGGGTKVEIK
notes: Fab on phage pIX; del = residue deleted
B2: Phage # 48 Fab (IL-13-142 library) (Fab, V domains shown)
VH: B1 VH
VL: DIQMTQSPSTLSASVGDRVTITCRASKSISKYLAWYQQKPGKAPKLLIYSGSTLQSGVPSRFSGSGSGTEFTLTISSLQPDDFATYYCQQHDWGPYTFGGGTKVEIK
notes: Fab on phage pIX
B3: Phage # 33 Fab (IL-13-142 library) (Fab, V domains shown)
VH: B1 VH
VL: B2 VL
notes: Fab on phage pIX
B4: Phage # 87 Fab (IL-13-142 library) (Fab, V domains shown)
VH: B1 VH
VL: B2 VL with D92S, W93L
notes: Fab on phage pIX
B5: Phage # 94 Fab (IL-13-142 library) (Fab, V domains shown)
VH: B1 VH
VL: B2 VL with W93L
notes: Fab on phage pIX
B6: Phage # 68 Fab (IL-13-142 library) (Fab, V domains shown)
VH: B1 VH
VL: B1 VL with Q91H, S93F
notes: as for B1
B7: Phage # 86 Fab (IL-13-142 library) (Fab, V domains shown)
VH: B1 VH
VL: B2 VL with W93T
notes: Fab on phage pIX
B8: Phage # 80 Fab (IL-13-142 library) (Fab, V domains shown)
VH: B1 VH
VL: B1 VL with S93Y
notes: as for B1
B9: Phage # 93 Fab (IL-13-142 library) (Fab, V domains shown)
VH: B1 VH
VL: B2 VL with D92E, W93S
notes: Fab on phage pIX
B10: Phage # 88 Fab (IL-13-142 library) (Fab, V domains shown)
VH: B1 VH
VL: B2 VL with D92F
notes: Fab on phage pIX
B11: mAb with Lc 1A05 (Lc6 variant) and Hc2 (antibody, V domains shown)
VH: B1 VH
VL: EIVLTQSPATLSLSPGERATLSCRASKSISKYLAWYQQKPGQAPRLLIYSGSTLQSGIPARFSGSGSGTDFTLTISSLEPEDFAVYYCQQQDGPYTFGQGTKLEIK
notes: human IgG1; del = residue deleted
B12: mAb with Lc 1G02 (Lc6 variant, Table 8) and Hc2 (antibody, V domains shown)
VH: B1 VH
VL: EIVLTQSPATLSLSPGERATLSCRASKSISKYLAWYQQKPGQAPRLLIYSGSTLQSGIPARFSGSGSGTDFTLTISSLEPEDFAVYYCQQHSWAPYTFGQGTKLEIK
notes: human IgG1
B13: mAb with Lc 1E03 (Lc6 variant) and Hc2 (antibody, V domains shown)
VH: B1 VH
VL: B12 VL with S92L, W93L, A94G
notes: human IgG1
B14: mAb with Lc 1C02 (Lc6 variant) and Hc2 (antibody, V domains shown)
VH: B1 VH
VL: B12 VL with S92V, A94G
notes: human IgG1
B15: mAb with Lc 1B01 (Lc6 variant) and Hc2 (antibody, V domains shown)
VH: B1 VH
VL: B12 VL with A94G
notes: human IgG1
B16: mAb with Lc 1F03 (Lc6 variant, Table 8) and Hc2 (antibody, V domains shown)
VH: B1 VH
VL: B12 VL with S92D, W93R, A94D
notes: human IgG1

biological target: T1, human IL-13 R130Q variant (R110Q of the mature chain) (human, UniProt P35225 35-146, Biotinylated on amines (NHS-LC-biotin, 4:1) in ELISA, panning and competition assays. The letters are unchanged.); assay: single-point (10 nM) phage Fab ELISA on biotinylated IL-13 R130Q
T1 construct: R130Q counts from Met 1 of the signal peptide, R110Q on the mature chain; Bought from Peprotech; also called IL-13 R110Q; b-R130Q

B1 was tested. Which “% of Lc16Hc7” value did it give?
The value was 185%.

How did the “% of Lc16Hc7” value turn out when B2 was run?
Its value is 180%.

For B3, which “% of Lc16Hc7” value is on record?
The value was 124%.

For B4, which “% of Lc16Hc7” value is on record?
The value was 125%.

With B5 as the binder, how does the “% of Lc16Hc7” value read?
Its value is 272%.

With B6 as the binder, how does the “% of Lc16Hc7” value read?
The value was 398%.

With B7 as the binder, how does the “% of Lc16Hc7” value read?
The value was 334%.

With B8 as the binder, how does the “% of Lc16Hc7” value read?
Its value is 163%.

Which “% of Lc16Hc7” value does the source give for B9 here?
The value was 223%.

With B10 as the binder, how does the “% of Lc16Hc7” value read?
The value was 193%.

biological target: T1, human IL-13 R130Q variant (R110Q of the …); assay: Ra2 binding inhibition ELISA, mAb in crude HEK293 supernatant, IL-13 binding to IL-13Ra2

How did the “% Ra2 Binding Inhibition” value turn out when B11 was run?
The value was 82.7%.

How did the “% Ra2 Binding Inhibition” value turn out when B12 was run?
Its value is 55.2%.

For B13, which “% Ra2 Binding Inhibition” value is on record?
Its value is 61.5%.

For B14, which “% Ra2 Binding Inhibition” value is on record?
Its value is 68.4%.

Which “% Ra2 Binding Inhibition” value does the source give for B15 here?
The value was 77.6%.

For B16, which “% Ra2 Binding Inhibition” value is on record?
Its value is 57.6%.
